Results on five molecules are retold here after patent publication US11078465B2, “Alcohol dehydrogenase mutant and application thereof in synthesis of diaryl chiral alcohols” (Jiangnan University, priority 2018, dated 2021).

Holding throughout (type): biochemical
The test system of data set [1] is O=C(c1ccc(Cl)cc1)c1ccccn1. As to the kind of experiment: Kinetic analysis of alcohol dehydrogenase mutant (CPMK reduction, NADPH absorption at 340 nm). The following applies: substrate CPMK, pH 7.0, 30° C. The protocol:
Adopting a total reaction system of 200 μL, including: 1.0 mM NADPH, 1.0 mM substrate CPMK and sodium phosphate buffer (PBS, 100 mM, pH 7.0), fully and evenly mixing, maintaining at 30° C. for 2 min, adding an appropriate amount of enzyme solution, and detecting the change in light absorption at 340 nm.
The enzyme activity was calculated by the following formula: Enzyme activity (U)=EW×V×10^3/(6220×I);
in the formula, EW is the change in absorbance at 340 nm in 1 min; V is the volume of a reaction solution in mL; 6220 is the molar extinction coefficient of NADPH in L/mol·cm); and 1 is the optical path distance in cm. One activity unit (U) corresponds to the amount of enzyme required to catalyze the oxidation of 1 μmol NADPH per minute under the above conditions.
A column used for purification was a nickel affinity column HisTrap FF crude, and purification was achieved through affinity chromatography using a histidine tag on recombinant protein. The nickel column was equilibrated with a solution A first, a crude enzyme solution was loaded, a penetrating peak was further eluted off using the solution A, and after equilibrium, a solution B (20 mM sodium phosphate, 500 mM NaCl, and 1000 mM imidazole, pH 7.4) was used for gradient elution to elute off the recombinant protein bound to the nickel column, so as to obtain the recombinant alcohol dehydrogenase mutant. The purified protein was subjected to activity measurement (CPMK as substrate, and NADPH as coenzyme) and SDS-PAGE analysis. […] The purified alcohol dehydrogenase protein was then replaced into a Tris-HCl (100 mM, pH 7.0) buffer using a Hi Trap Desalting column (GE Healthcare).
The activity of KpADH at different substrate concentrations and coenzyme concentrations was determined, and a double reciprocal curve was made based on the reciprocal of activity and substrate concentration to calculate kinetic parameters.
Two mutants of S237A and S237C valuable for modification of asymmetric synthesis R- and S- are obtained by random mutation screening, and the two sites are used as templates for random mutation. […] It can be known by combining the data in Tables 2 and 3 that the 214 site of alcohol dehydrogenase is a site that is important for determining selectivity improvement and inversion.

Data set [2] is described as follows: Asymmetric reduction in 20 mL biocatalytic system, conversion.
Data set [3] is described as follows: Stereoselectivity (ee) of CPMK reduction, chiral liquid chromatography. The note with it: product configuration in brackets. In short, it runs like this:
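ee is calculated from the (S)-CPMA and (R)-CPMA molar concentrations measured by chiral liquid chromatography; conversion also by GC. Samples are ethyl acetate extracts of the reaction, dried and redissolved in ethanol.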

A short description of data set [4]: Stereoselectivity on different substrates. The following applies: configuration in brackets. In short, it runs like this: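 Reaction mixture extracted with ethyl acetate, dried organic phase redissolved in ethanol, then analysed by chiral liquid chromatography and gas chromatography. Values are transformation rate and ee, with ee from LC molar concentrations of (S)- and (R)-CPMA. Substrates were prochiral ketones reduced by alcohol dehydrogenase mutants.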

The nature of data set [5]: Kinetic analysis of alcohol dehydrogenase and mutants (NADPH oxidation, 340 nm, double reciprocal curve). The following applies: substrate CPMK. In short, it runs like this: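 His-tagged recombinant KpADH (wild type or mutant) purified by nickel affinity, desalted into Tris-HCl pH 7.0. Activity measured at 30° C in 100 mM sodium phosphate pH 7.0 with 1.0 mM NADPH and 1.0 mM CPMK by 340 nm NADPH absorbance decrease; kinetic parameters from double reciprocal plots over varied substrate and coenzyme concentrations.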

Data set [6] in a line: Stereoselectivity on different substrates. The note with it: configuration in brackets. In short, it runs like this: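 Alcohol dehydrogenase mutants reduced prochiral ketones, including CPMK, aryl pyridyl and diaryl ketones, acetophenones and keto esters. Reactions were extracted into ethyl acetate and redissolved in ethanol. Conversion and ee were determined by chiral liquid and gas chromatography, with ee calculated from (S)- and (R)-CPMA molar concentrations.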
The source holds these as a separate data set.

Data set [7] in a line: Substrate specificity, specific activity. In short, it runs like this: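 Alcohol dehydrogenase mutants were assayed with 1.0 mM NADPH and 1.0 mM ketone substrate (CPMK or other prochiral carbonyls) in 100 mM sodium phosphate, pH 7.0, at 30° C. NADPH oxidation was followed at 340 nm; one U oxidizes 1 μmol NADPH per min (ε 6220).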

By Km is commonly meant the substrate concentration at which the rate is half of its maximum. As a reminder, the Vmax is the top rate of the reaction or transport when substrate is in excess. A word on the kcat: it is the number of substrate molecules converted per active site and unit of time at saturation. What is called kcat/Km is the turnover number divided by the Michaelis constant. “alcohol dehydrogenase KpADH (SEQ ID No. 2) mutant H249Y/S237C (Vanderwaltozyma polyspora DSM 70294; H249Y/S237C)”: in data set [1] (other: H249Y/S237C), the Km worked out at 980 ± 20 µM, the Vmax was 16.5 µM/min/mg, the kcat stood at 11 ± 0.83 s⁻¹ and the kcat/Km is 11200 ± 980 M⁻¹ s⁻¹.
For “alcohol dehydrogenase KpADH (SEQ ID No. 2) mutant S237A (Vanderwaltozyma polyspora DSM 70294; S237A)”, in data set [1] (other: S237A), the Km turned out to be 580 ± 30 µM, the Vmax was found to be 36.5 µM/min/mg, the kcat was found to be 24.4 ± 1.26 s⁻¹ and the kcat/Km stood at 42000 ± 2360 M⁻¹ s⁻¹.
Regarding “alcohol dehydrogenase KpADH (SEQ ID No. 2) mutant L60F/S237C (Vanderwaltozyma polyspora DSM 70294; L60F/S237C)”, in data set [1] (other: L60F/S237C), the Km was 1120 ± 20 µM, the Vmax came out at 12.6 µM/min/mg, the kcat came to 8.4 ± 0.23 s⁻¹ and the kcat/Km is 7500 ± 690 M⁻¹ s⁻¹.
“alcohol dehydrogenase KpADH (SEQ ID No. 2) mutant S237C (Vanderwaltozyma polyspora DSM 70294; S237C)”: in data set [1] (other: S237C), the Km turned out to be 1010 ± 100 µM, the Vmax is 20.9 µM/min/mg, the catalytic constant (kcat) amounted to 13.9 ± 0.99 s⁻¹ and the kcat/Km was 13800 ± 250 M⁻¹ s⁻¹.

B1: E214Y/S237A: tyrosine for glutamate at position 214 and alanine for serine at position 237 of SEQ ID No. 2 (protein)
chain: MSVLISGASGYIAKHIVRVLLEQNYKVIGTVRSQDKADKLLKQYNNPNLSYEIVPEIANLDAFDDIFKKHGKEIKYVIHAASPVNFGAKDLEKDLVIPAINGTKNMFEAIKKYAPDTVERVVMTASYASIMTPHRQNDPTLTLDEETWNPVTEENAYENVFTAYCASKTFAEKEAWKFVKENSDAVKFKLTTIHPSFVFGPQNFDEDVTKKLNYTCEIINGLLHAPFDTKVEKTHFAQFIDVRDVAKTHVLGFQKDELINQRLLLCNGAFSQQDIVNVFNEDFPELKGQFPPEDKDTDLNKGVTGCKIDNEKTKKLLAFEFTPFHKTIHDTVYQILHKEGRV
modifications: Protein translated from synthetic DNA
Regarding B1, the Conversion rate was found to be 32% in data set [2] (4-nitroacetophenone 10 mM, 1 h); 48% in data set [2] (4-nitroacetophenone 10 mM, 2 h); 60% in data set [2] (4-nitroacetophenone 10 mM, 3 h); 85% in data set [2] (4-nitroacetophenone 10 mM, 4 h); 95% in data set [2] (4-nitroacetophenone 10 mM, 6 h); 99.8% in data set [2] (4-nitroacetophenone 10 mM, 8 h). Besides, the Conversion rate in data set [2] (4-nitroacetophenone 10 mM, 12 h) is on record as above 99.9%; in data set [2] (4-nitroacetophenone 10 mM, 24 h) it was above 99.9%; in data set [2] (4-nitroacetophenone 20 mM, 1 h), 22%; in data set [2] (4-nitroacetophenone 20 mM, 2 h), 35.5%; in data set [2] (4-nitroacetophenone 20 mM, 3 h), 55.8%; in data set [2] (4-nitroacetophenone 20 mM, 4 h), 69.5%. The Conversion rate in data set [2] (4-nitroacetophenone 20 mM, 6 h) was determined as 90.4%; in data set [2] (4-nitroacetophenone 20 mM, 8 h) it was 95.6%; in data set [2] (4-nitroacetophenone 20 mM, 12 h) it was 99.2%; in data set [2] (4-nitroacetophenone 20 mM, 24 h), 99.5%; in data set [2] (4-nitroacetophenone 50 mM, 1 h) it was 10.5%; in data set [2] (4-nitroacetophenone 50 mM, 2 h), 22.5%. The Conversion rate in data set [2] (4-nitroacetophenone 50 mM, 3 h) is given as 35.9%; in data set [2] (4-nitroacetophenone 50 mM, 4 h) it was 49.5%; in data set [2] (4-nitroacetophenone 50 mM, 6 h), 60.9%; in data set [2] (4-nitroacetophenone 50 mM, 8 h), 82.6%; in data set [2] (4-nitroacetophenone 50 mM, 12 h) it was 85.5%; in data set [2] (4-nitroacetophenone 50 mM, 24 h), 86.5%. For the same molecule, the Conversion rate amounted to 66% in data set [2] (CPMK 100 mM, 1 h); 80% in data set [2] (CPMK 100 mM, 2 h); 89.5% in data set [2] (CPMK 100 mM, 3 h); 94% in data set [2] (CPMK 100 mM, 4 h); 96.6% in data set [2] (CPMK 100 mM, 6 h); 99.5% in data set [2] (CPMK 100 mM, 8 h). Further, the Conversion rate in data set [2] (CPMK 100 mM, 12 h) was above 99.9%; in data set [2] (CPMK 100 mM, 24 h), above 99.9%; in data set [2] (CPMK 200 mM, 1 h), 45.5%; in data set [2] (CPMK 200 mM, 2 h), 65.5%; in data set [2] (CPMK 200 mM, 3 h) it was 75.9%; in data set [2] (CPMK 200 mM, 4 h), 88.8%. Moreover, the Conversion rate in data set [2] (CPMK 200 mM, 6 h) is listed as 95.6%; in data set [2] (CPMK 200 mM, 8 h) it was 99.1%; in data set [2] (CPMK 200 mM, 12 h), 99.7%; in data set [2] (CPMK 200 mM, 24 h), above 99.9%; in data set [2] (CPMK 500 mM, 1 h) it was 25.5%; in data set [2] (CPMK 500 mM, 2 h), 33.5%. Also, the Conversion rate amounted to 45.8% in data set [2] (CPMK 500 mM, 3 h); 59.9% in data set [2] (CPMK 500 mM, 4 h); 77.9% in data set [2] (CPMK 500 mM, 6 h); 90.2% in data set [2] (CPMK 500 mM, 8 h); 95.7% in data set [2] (CPMK 500 mM, 12 h); 99.5% in data set [2] (CPMK 500 mM, 24 h). The “ee in asymmetric synthesis of (R)-CPMA” value in data set [2] (20 mL biocatalytic system, 30° C., pH 7.5) was determined as 99.1%. For the same molecule, in data set [2] (p-nitrobenzophenone), the “substrate concentration that could be afforded” value is 20 mM. The e.e. in data set [3] is on record as 99.1 (R). Also, the “Stereoselectivity (ee)” value in data set [4] (substrate [drawing 13]) is 18.2 (R); in data set [4] (substrate [drawing 14], likely CPMK (values partly match Table 4)), 99.1 (R); in data set [4] (substrate [drawing 15]) it was 89.3 (S); in data set [4] (substrate [drawing 18]), 79.3 (S); in data set [6] (substrate [drawing 10], acetophenone), 32.1 (R); in data set [6] (substrate [drawing 11], 4-chloroacetophenone), 97.9 (R). Also, the “Stereoselectivity (ee)” value in data set [6] (substrate [drawing 12], 4-chlorobenzoyl chloride) was 61.6 (R); in data set [6] (substrate [drawing 16], (4-bromophenyl)-(phenyl)-methanone) it was 98.5 (S); in data set [6] (substrate [drawing 17], p-nitrobenzophenone) it was 99.2 (S). Also, in data set [5], the Kcat came to 15.80 ± 0.25 s⁻¹. The Km in data set [5] came out at 620 ± 20 µM. The Vmax in data set [5] was 23.70 ± 0.37 µM/min/mg. In addition, the specific activity in data set [7] (substrate [drawing 1]) came to 0.26 U/mg; in data set [7] (substrate [drawing 2]) it was 0.25 U/mg; in data set [7] (substrate [drawing 3]), 2.25 U/mg; in data set [7] (substrate [drawing 4]), 4.06 U/mg; in data set [7] (substrate [drawing 5]), 14.48 U/mg; in data set [7] (substrate [drawing 6], 4-chlorophenacyl chloride), 25.70 U/mg. Besides, the specific activity in data set [7] (substrate [drawing 7]) came out at 22.02 U/mg; in data set [7] (substrate [drawing 8]), 22.61 U/mg; in data set [7] (substrate [drawing 9], ethyl 4-chloro-3-oxobutanoate), 7.74 U/mg.
